Assay results taken from the supplement of paper PMC10065799, “High-throughput profiling of sequence recognition by tyrosine kinases and SH2 domains using bacterial peptide display” (eLife, 2023).

target: Fes (UniProt P07332); test: phosphorylation enrichment, bacterial display (enrichment ratio); higher = better substrate or ligand; peptides without Tyr show the background
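Also: 11-residue human phosphosite peptides and single-mutation variants displayed on the E. coli surface, counted by deep sequencing, each peptide's frequency after selection divided by its frequency in the unselected input library; frequency after pTyr selection over input frequency; kinase dosed for 20-30% of maximal phosphorylation in three min.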

Sequence of Fes (P07332 whole entry, looked up): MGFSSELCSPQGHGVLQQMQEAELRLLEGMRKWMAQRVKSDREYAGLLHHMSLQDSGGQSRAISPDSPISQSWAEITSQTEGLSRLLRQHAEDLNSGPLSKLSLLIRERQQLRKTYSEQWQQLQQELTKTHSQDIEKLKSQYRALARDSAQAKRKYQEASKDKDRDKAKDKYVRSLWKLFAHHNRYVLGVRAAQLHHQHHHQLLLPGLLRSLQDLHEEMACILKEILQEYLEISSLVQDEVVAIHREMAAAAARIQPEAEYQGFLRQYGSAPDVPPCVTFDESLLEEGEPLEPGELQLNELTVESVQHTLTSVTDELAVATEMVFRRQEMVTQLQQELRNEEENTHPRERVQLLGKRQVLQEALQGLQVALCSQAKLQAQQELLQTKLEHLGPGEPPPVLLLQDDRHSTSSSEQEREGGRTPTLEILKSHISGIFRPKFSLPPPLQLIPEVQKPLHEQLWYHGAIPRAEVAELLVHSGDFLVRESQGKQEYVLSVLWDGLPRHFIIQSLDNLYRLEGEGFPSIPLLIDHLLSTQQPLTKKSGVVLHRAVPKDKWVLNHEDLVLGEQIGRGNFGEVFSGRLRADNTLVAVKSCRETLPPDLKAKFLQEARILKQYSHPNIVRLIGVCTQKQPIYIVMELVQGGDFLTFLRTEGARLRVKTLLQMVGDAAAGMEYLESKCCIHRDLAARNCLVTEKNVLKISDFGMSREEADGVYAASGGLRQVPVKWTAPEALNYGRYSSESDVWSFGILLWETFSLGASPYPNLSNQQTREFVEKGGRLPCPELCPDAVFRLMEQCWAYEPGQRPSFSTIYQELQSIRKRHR

Sequence | phosphorylation enrichment
CTTIHYNFMCN [TP53_Y234_Y236F] | 0.923
GLAKEYIDPET [CSNK1G2_Y195] | 0.941
MSYDRYMAICH [OR2A5_Y123] | 1.03
LFSNAYLNDLA [ALDH1A1_Y119_YF] | 1.58
CTTIHQNFMCN [TP53_Y234_Y234Q_YF] | 0.855
ATPKGYERDAS [OTC_Y223_P225R] | 0.68
SIKNKYVTALF [KCNH2_Y611_D609N_YF] | 0.653
NKEAICSGYIR [SMCHD1_Y283_Y283C] | 0.903
HVKHNYECLVY [XRCC5_Y416_I412V] | 1.2
LPEENYQVLCF [ARHGAP1_Y365_R369C] | 3.56
MICSAYALGGL [CPS1_Y590_R587C] | 1.05
SETSRYLSELF [KCNJ3_Y67_D70E] | 0.882
ILGRFYETSSI [PAX2_Y73_G76S_YF] | 0.813
FAKTQYPDIYA [CRX_Y63_V66I] | 0.693
FSGLAYTMERS [GLUD1_Y512_H507Y_YF] | 0.858
DFDNLYYWDQD [ERBB2_Y1221_A1216D] | 1.96
YSKTQYNQVPS [CXADR_Y318] | 0.522

Sequence | phosphorylation enrichment
ALMGPYHGQVL [HADHA_Y343_L342P] | 0.537
VQQVIYATGAL [MYH7_Y422] | 1
PSNTDYPGPHS [TP63_Y171] | 0.909
HIPFRYPKEFQ [IDS_Y234] | 1.26
RLAKTYETTLK [ALB_Y377_E382K] | 0.848
HRDSSYYWEIE [RAF1_Y340_Q335H] | 1.67
INITIYGKTFR [EFHC1_Y177] | 1.37
SKDQIYPMKLK [RANBP17_Y823] | 0.533
RSPLRYTSILT [OR51B6_Y130] | 0.843
KELSNYKHLTL [SLIT2_Y776] | 0.528
TLQSMFGCDVG [HLA-B_Y123_Y123F] | 1.09
QNRELYSEGLG [CNKSR1_Y665] | 0.789
ALPGEYIPTVF [RAC1_Y32_F28L] | 1.16
PSPMPCASCQM [FOXL2_Y215_Y215C] | 0.516
MSRLKYPVSQQ [BTK_Y375_I370M] | 0.706
VTGWGYRKLRD [F11_Y521] | 0.703

system: Fer (mouse); test: as above

Sequence | phosphorylation enrichment
CTTIHYNFMCN [TP53_Y234_Y236F] | 0.516
GLAKEYIDPET [CSNK1G2_Y195] | 0.509
MSYDRYMAICH [OR2A5_Y123] | 0.498
LFSNAYLNDLA [ALDH1A1_Y119_YF] | 0.688
CTTIHQNFMCN [TP53_Y234_Y234Q_YF] | 0.421
ATPKGYERDAS [OTC_Y223_P225R] | 0.518
SIKNKYVTALF [KCNH2_Y611_D609N_YF] | 0.371
NKEAICSGYIR [SMCHD1_Y283_Y283C] | 0.446
HVKHNYECLVY [XRCC5_Y416_I412V] | 0.573
LPEENYQVLCF [ARHGAP1_Y365_R369C] | 7.5
MICSAYALGGL [CPS1_Y590_R587C] | 0.551
SETSRYLSELF [KCNJ3_Y67_D70E] | 0.376
ILGRFYETSSI [PAX2_Y73_G76S_YF] | 0.887
FAKTQYPDIYA [CRX_Y63_V66I] | 0.359
FSGLAYTMERS [GLUD1_Y512_H507Y_YF] | 0.361
DFDNLYYWDQD [ERBB2_Y1221_A1216D] | 3.8
YSKTQYNQVPS [CXADR_Y318] | 0.386

Sequence | phosphorylation enrichment
ALMGPYHGQVL [HADHA_Y343_L342P] | 0.336
VQQVIYATGAL [MYH7_Y422] | 0.71
PSNTDYPGPHS [TP63_Y171] | 0.582
HIPFRYPKEFQ [IDS_Y234] | 0.344
RLAKTYETTLK [ALB_Y377_E382K] | 0.406
HRDSSYYWEIE [RAF1_Y340_Q335H] | 0.612
INITIYGKTFR [EFHC1_Y177] | 0.936
SKDQIYPMKLK [RANBP17_Y823] | 0.336
RSPLRYTSILT [OR51B6_Y130] | 0.492
KELSNYKHLTL [SLIT2_Y776] | 0.423
TLQSMFGCDVG [HLA-B_Y123_Y123F] | 0.523
QNRELYSEGLG [CNKSR1_Y665] | 0.309
ALPGEYIPTVF [RAC1_Y32_F28L] | 0.46
PSPMPCASCQM [FOXL2_Y215_Y215C] | 0.488
MSRLKYPVSQQ [BTK_Y375_I370M] | 0.375
VTGWGYRKLRD [F11_Y521] | 0.385

system: c-Src; test: as above

Sequence | phosphorylation enrichment
CTTIHYNFMCN [TP53_Y234_Y236F] | 0.487
GLAKEYIDPET [CSNK1G2_Y195] | 0.454
MSYDRYMAICH [OR2A5_Y123] | 0.485
LFSNAYLNDLA [ALDH1A1_Y119_YF] | 1.15
CTTIHQNFMCN [TP53_Y234_Y234Q_YF] | 0.391
ATPKGYERDAS [OTC_Y223_P225R] | 0.369
SIKNKYVTALF [KCNH2_Y611_D609N_YF] | 0.41
NKEAICSGYIR [SMCHD1_Y283_Y283C] | 0.399
HVKHNYECLVY [XRCC5_Y416_I412V] | 2.04
LPEENYQVLCF [ARHGAP1_Y365_R369C] | 5.73
MICSAYALGGL [CPS1_Y590_R587C] | 0.779
SETSRYLSELF [KCNJ3_Y67_D70E] | 0.346
ILGRFYETSSI [PAX2_Y73_G76S_YF] | 0.47
FAKTQYPDIYA [CRX_Y63_V66I] | 0.572
FSGLAYTMERS [GLUD1_Y512_H507Y_YF] | 0.935
DFDNLYYWDQD [ERBB2_Y1221_A1216D] | 6.09
YSKTQYNQVPS [CXADR_Y318] | 0.387

Sequence | phosphorylation enrichment
ALMGPYHGQVL [HADHA_Y343_L342P] | 0.46
VQQVIYATGAL [MYH7_Y422] | 5.97
PSNTDYPGPHS [TP63_Y171] | 0.5
HIPFRYPKEFQ [IDS_Y234] | 0.756
RLAKTYETTLK [ALB_Y377_E382K] | 0.817
HRDSSYYWEIE [RAF1_Y340_Q335H] | 1.92
INITIYGKTFR [EFHC1_Y177] | 0.508
SKDQIYPMKLK [RANBP17_Y823] | 0.572
RSPLRYTSILT [OR51B6_Y130] | 0.392
KELSNYKHLTL [SLIT2_Y776] | 0.368
TLQSMFGCDVG [HLA-B_Y123_Y123F] | 0.44
QNRELYSEGLG [CNKSR1_Y665] | 0.446
ALPGEYIPTVF [RAC1_Y32_F28L] | 0.514
PSPMPCASCQM [FOXL2_Y215_Y215C] | 0.37
MSRLKYPVSQQ [BTK_Y375_I370M] | 0.491
VTGWGYRKLRD [F11_Y521] | 0.479

target: FGFR3 (UniProt P22607); test: as above
Sequence (P22607 whole entry, looked up): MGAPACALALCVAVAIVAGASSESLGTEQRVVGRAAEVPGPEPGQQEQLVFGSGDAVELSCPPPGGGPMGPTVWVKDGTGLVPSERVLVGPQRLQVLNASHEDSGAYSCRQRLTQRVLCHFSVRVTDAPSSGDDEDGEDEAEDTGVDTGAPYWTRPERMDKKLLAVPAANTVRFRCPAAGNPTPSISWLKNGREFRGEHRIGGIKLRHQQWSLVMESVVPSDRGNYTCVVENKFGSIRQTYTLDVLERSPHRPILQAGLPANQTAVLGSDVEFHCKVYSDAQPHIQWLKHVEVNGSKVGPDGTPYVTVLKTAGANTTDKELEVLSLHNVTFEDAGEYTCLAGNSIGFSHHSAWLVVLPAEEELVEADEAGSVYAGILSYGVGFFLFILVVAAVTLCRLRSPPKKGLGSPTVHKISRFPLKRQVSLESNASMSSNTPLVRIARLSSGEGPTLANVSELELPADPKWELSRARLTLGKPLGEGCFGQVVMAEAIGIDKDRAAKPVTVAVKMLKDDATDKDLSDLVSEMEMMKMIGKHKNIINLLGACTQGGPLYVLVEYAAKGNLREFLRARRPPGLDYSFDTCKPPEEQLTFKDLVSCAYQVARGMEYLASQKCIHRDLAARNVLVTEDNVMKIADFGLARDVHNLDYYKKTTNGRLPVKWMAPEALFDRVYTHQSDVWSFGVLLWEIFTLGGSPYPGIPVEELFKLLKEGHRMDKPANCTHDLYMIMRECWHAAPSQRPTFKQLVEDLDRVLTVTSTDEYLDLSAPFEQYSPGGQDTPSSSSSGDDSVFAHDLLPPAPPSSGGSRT

Sequence | phosphorylation enrichment
CTTIHYNFMCN [TP53_Y234_Y236F] | 0.645
GLAKEYIDPET [CSNK1G2_Y195] | 0.604
MSYDRYMAICH [OR2A5_Y123] | 0.672
LFSNAYLNDLA [ALDH1A1_Y119_YF] | 1.25
CTTIHQNFMCN [TP53_Y234_Y234Q_YF] | 0.614
ATPKGYERDAS [OTC_Y223_P225R] | 0.471
SIKNKYVTALF [KCNH2_Y611_D609N_YF] | 0.507
NKEAICSGYIR [SMCHD1_Y283_Y283C] | 0.71
HVKHNYECLVY [XRCC5_Y416_I412V] | 1.12
LPEENYQVLCF [ARHGAP1_Y365_R369C] | 5.59
MICSAYALGGL [CPS1_Y590_R587C] | 0.844
SETSRYLSELF [KCNJ3_Y67_D70E] | 0.537
ILGRFYETSSI [PAX2_Y73_G76S_YF] | 0.463
FAKTQYPDIYA [CRX_Y63_V66I] | 0.668
FSGLAYTMERS [GLUD1_Y512_H507Y_YF] | 0.63
DFDNLYYWDQD [ERBB2_Y1221_A1216D] | 9.13
YSKTQYNQVPS [CXADR_Y318] | 0.429

Sequence | phosphorylation enrichment
ALMGPYHGQVL [HADHA_Y343_L342P] | 0.436
VQQVIYATGAL [MYH7_Y422] | 0.798
PSNTDYPGPHS [TP63_Y171] | 0.722
HIPFRYPKEFQ [IDS_Y234] | 0.66
RLAKTYETTLK [ALB_Y377_E382K] | 0.463
HRDSSYYWEIE [RAF1_Y340_Q335H] | 4.34
INITIYGKTFR [EFHC1_Y177] | 0.781
SKDQIYPMKLK [RANBP17_Y823] | 0.437
RSPLRYTSILT [OR51B6_Y130] | 0.431
KELSNYKHLTL [SLIT2_Y776] | 0.43
TLQSMFGCDVG [HLA-B_Y123_Y123F] | 0.7
QNRELYSEGLG [CNKSR1_Y665] | 0.397
ALPGEYIPTVF [RAC1_Y32_F28L] | 0.697
PSPMPCASCQM [FOXL2_Y215_Y215C] | 0.559
MSRLKYPVSQQ [BTK_Y375_I370M] | 0.621
VTGWGYRKLRD [F11_Y521] | 0.419
